The record followed here is patent US20220357348A1 (FARON PHARMACEUTICALS, published 2022).

The assay addresses T1, human Clever-1 (Common Lymphatic Endothelial and Vascular Endothelial Receptor-1) expressed on KG-1 cells (human, UniProt Q9NY15 26-2570).
T1 construct: whole, on cells; also called Stabilin-1
Kind of assay: flow cytometry on KG-1 cells, 4 C, titration 10-0.014 µg/mL, AlexaFluor 647 anti-HuIgG secondary. As for the experimental part:
Excess primary antibody was removed and the cells were then incubated for a further 30 minutes at 4° C. with either an AlexaFluor 647 labelled anti-HulgG or PE labelled anti-rat IgG antibody (ThermoFisher Scientific, Loughborough, UK) at 10 μg/mL. The unbound secondary antibody was washed away, and the cells fixed with BD CellFix (BD Biosciences, Oxford, UK) before analysis. Samples were acquired on an Attune NxT focussing cytometer equipped with a blue and red laser (ThermoFisher Scientific, Loughborough, UK) using the BL2 and RL1 channels for PE and AlexaFluor 647 dyes, respectively. The MFI values were plotted against the antibody concentration. […] The MFI in the absence of primary antibody is represented by a dotted line.
In general terms: In flow cytometry, cells or beads pass a laser one at a time.

T1 sequence (Q9NY15 26-2570): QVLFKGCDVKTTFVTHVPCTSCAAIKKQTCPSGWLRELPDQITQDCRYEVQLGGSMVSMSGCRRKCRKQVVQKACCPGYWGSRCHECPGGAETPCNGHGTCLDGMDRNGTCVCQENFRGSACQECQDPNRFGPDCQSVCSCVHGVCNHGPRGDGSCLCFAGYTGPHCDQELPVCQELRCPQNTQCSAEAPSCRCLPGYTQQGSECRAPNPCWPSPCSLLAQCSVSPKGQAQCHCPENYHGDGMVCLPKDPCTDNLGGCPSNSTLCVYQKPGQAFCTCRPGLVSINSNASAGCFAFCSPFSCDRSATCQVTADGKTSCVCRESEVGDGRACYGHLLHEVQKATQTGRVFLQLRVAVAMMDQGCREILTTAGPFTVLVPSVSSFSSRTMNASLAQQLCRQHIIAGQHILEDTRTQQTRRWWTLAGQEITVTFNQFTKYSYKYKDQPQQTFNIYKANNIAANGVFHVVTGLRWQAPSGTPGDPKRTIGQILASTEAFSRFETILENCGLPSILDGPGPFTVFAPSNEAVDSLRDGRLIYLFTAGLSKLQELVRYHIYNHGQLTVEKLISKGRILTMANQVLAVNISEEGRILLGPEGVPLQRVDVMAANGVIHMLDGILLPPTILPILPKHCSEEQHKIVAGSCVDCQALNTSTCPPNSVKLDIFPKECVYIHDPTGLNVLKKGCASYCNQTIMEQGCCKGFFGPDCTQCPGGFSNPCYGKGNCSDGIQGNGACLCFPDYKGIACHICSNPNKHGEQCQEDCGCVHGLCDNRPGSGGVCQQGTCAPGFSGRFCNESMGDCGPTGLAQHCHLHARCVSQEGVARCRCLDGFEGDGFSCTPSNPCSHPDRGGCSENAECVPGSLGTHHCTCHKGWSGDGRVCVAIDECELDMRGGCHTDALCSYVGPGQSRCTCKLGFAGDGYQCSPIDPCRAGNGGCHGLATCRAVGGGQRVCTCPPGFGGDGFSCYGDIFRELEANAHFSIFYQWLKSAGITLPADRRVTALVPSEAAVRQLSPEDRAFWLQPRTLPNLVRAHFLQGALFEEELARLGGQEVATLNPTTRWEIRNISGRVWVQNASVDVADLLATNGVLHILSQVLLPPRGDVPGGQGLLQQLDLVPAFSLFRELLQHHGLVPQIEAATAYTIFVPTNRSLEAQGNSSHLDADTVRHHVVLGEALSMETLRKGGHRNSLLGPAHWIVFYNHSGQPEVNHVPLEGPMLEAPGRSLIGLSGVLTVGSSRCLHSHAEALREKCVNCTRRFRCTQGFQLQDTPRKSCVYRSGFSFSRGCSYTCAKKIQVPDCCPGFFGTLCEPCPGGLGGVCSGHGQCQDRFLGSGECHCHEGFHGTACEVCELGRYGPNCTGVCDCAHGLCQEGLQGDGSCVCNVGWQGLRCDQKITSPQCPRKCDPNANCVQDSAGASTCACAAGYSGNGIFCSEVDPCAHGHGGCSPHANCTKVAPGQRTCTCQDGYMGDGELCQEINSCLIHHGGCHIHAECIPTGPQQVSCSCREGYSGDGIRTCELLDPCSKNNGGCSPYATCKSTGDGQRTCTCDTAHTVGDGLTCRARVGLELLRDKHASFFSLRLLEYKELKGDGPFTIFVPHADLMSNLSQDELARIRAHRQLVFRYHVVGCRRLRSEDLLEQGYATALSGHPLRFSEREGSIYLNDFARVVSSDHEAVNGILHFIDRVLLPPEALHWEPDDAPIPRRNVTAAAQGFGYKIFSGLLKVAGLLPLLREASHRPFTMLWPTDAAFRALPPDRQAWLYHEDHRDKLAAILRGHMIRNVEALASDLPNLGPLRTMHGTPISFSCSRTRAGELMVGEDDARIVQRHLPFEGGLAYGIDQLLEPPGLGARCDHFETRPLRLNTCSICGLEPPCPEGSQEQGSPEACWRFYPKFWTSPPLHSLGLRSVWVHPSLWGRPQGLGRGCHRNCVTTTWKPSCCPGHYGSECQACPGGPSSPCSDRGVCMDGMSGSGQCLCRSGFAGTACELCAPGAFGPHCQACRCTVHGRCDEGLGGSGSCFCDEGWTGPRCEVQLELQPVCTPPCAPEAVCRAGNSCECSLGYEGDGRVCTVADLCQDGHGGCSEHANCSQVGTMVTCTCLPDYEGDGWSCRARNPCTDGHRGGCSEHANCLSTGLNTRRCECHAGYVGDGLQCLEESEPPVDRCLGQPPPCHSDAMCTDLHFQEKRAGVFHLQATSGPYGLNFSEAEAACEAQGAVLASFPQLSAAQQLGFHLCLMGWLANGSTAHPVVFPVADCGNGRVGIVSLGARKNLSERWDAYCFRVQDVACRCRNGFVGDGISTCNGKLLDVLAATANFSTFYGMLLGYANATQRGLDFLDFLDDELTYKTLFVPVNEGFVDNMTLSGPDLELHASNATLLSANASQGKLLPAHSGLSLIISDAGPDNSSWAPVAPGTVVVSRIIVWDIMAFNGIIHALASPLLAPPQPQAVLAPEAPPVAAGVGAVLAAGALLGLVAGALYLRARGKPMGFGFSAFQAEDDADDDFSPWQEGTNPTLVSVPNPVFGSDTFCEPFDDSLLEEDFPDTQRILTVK

B1: humanized anti-Clever-1 antibody FP-1305 (DSM ACC3361) (antibody, human IgG4 S228P, kappa, V domains shown)
VH: QVTLKESGPTLVKPTQTLTLTCSFSGFSLSTSGMGIGWIRQPPGKALEWLAHIWWDDDKRYNPALKSRLTISKDTSKNQVVLTMTNMDPVDTATYYCARHYGYDPYYAMDYWGQGTLVTVSS
VL: EIVLTQSPGTLSLSPGERATLSCTASSSVSSSYLHWYQQKPGKAPKLLIYRTSNLASGVPSRFSGSGSGTDYTLTISSLQPEDFATYYCHQYHRSPPTFGQGTKLEIKR
notes: Its isotype control is HuIgG4 S241P L248E; also called bexmarilimab
With B1, the binding result is on record as “binds”.
